According to paper PMC5701055 (Nature Communications, 2017):

Molecular target: the molecule itself
Test: crystal structure

B1: soluble ectodomain of human aminopeptidase N (hAPN), residues 66–967, WT (receptor)
chain: DQSKAWNRYRLPNTLKPDSYRVTLRPYLTPNDRGLYVFKGSSTVRFTCKEATDVIIIHSKKLNYTLSQGHRVVLRGVGGSQPPDIDKTELVEPTEYLVVHLKGSLVKDSQYEMDSEFEGELADDLAGFYRSEYMEGNVRKVVATTQMQAADARKSFPCFDEPAMKAEFNITLIHPKDLTALSNMLPKGPSTPLPEDPNWNVTEFHTTPKMSTYLLAFIVSEFDYVEKQASNGVLIRIWARPSAIAAGHGDYALNVTGPILNFFAGHYDTPYPLPKSDQIGLPDFNAGAMENWGLVTYRENSLLFDPLSSSSSNKERVVTVIAHELAHQWFGNLVTIEWWNDLWLNEGFASYVEYLGADYAEPTWNLKDLMVLNDVYRVMAVDALASSHPLSTPASEINTPAQISELFDAISYSKGASVLRMLSSFLSEDVFKQGLASYLHTFAYQNTIYLNLWDHLQEAVNNRSIQLPTTVRDIMNRWTLQMGFPVITVDTSTGTLSQEHFLLDPDSNVTRPSEFNYVWIVPITSIRDGRQQQDYWLIDVRAQNDLFSTSGNEWVLLNLNVTGYYRVNYDEENWRKIQTQLQRDHSAIPVINRAQIINDAFNLASAHKVPVTLALNNTLFLIEERQYMPWEAALSSLSYFKLMFDRSEVYGPMKNYLKKQVTPLFIHFRNNTNNWREIPENLMDQYSEVNAISTACSNGVPECEEMVSGLFKQWMENPNNNPIHPNLRSTVYCNAIAQGGEEEWDFAWEQFRNATLVNEADKLRAALACSKELWILNRYLSYTLNPDLIRKQDATSTIISITNNVIGQGLVWDFVQSNWKKLFNDYGGGSFSFSNLIQAVTRRFSTEYELQQLEQFKKDNEETGFGSGTRALEQALEKTKANIKWVKENKEVVLQWFTENSK
- binding result: binds
